In patent US20260209364A1 (NB HEALTH LABORATORY, published 2026):

Experiments:
human CCR7 [1] = target: T1, human CCR7 (human, UniProt P32248 25-378); experiment: cell-based or functional assay
T1 sequence: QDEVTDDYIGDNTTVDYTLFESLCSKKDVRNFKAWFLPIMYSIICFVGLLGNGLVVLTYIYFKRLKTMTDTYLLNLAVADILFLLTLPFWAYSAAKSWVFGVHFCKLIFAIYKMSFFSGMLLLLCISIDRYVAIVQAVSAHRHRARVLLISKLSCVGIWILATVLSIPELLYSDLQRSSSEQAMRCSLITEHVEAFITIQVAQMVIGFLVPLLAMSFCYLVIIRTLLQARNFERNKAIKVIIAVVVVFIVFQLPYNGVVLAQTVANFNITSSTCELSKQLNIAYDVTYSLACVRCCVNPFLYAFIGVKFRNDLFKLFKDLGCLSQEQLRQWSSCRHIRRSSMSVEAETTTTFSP

human CCR7 [2] = target: T1, human CCR7; experiment: cell-based or functional assay; remark: listed apart in the source

Row | Binder | IC50 (nM), inhibition of intracellular Ca2+ signaling in human CCR7 gene-transfected cells stimulated with 5x10^-8 M CCL21 (human CCR7 [1]) | IC50, inhibition of CCL19-dependent cell migration of Granta-519 cells (human CCR7 [2]) | IC50, inhibition of CCL19-induced intracellular Ca2+ signaling in hCCR7 gene-transfected cells (human CCR7 [2]) | IC50, inhibition of CCL21-induced intracellular Ca2+ signaling in hCCR7 gene-transfected cells (human CCR7 [2]) | half maximal inhibitory concentration (IC50), CCL21-induced intracellular Ca2+ signaling in MJ cells (human CCR7 [2])
1 | chimeric anti-CCR7 antibody VH0/VL0 (antibody, human IgG1, kappa, V domains shown) VH: EVQLQQSGPDLVKPGASVKISCKASGYSFTGYYMHWVKQSHGKSLEWIGRVNPNNGGTSYNKKFKVKAILTVDRSSSTAYMEFRSLTLEDSAVYYCARSESNNFYAMDYWGQGKSVTVSS VL: DILMTQTPLSLPVSLGDQVSISCRSSQSLVHSNGNTYLCWYLQKPGQSPKLLIYRVSNRFSGVPDRFSGSGSGTDFTLKISRVEAEDLGVYFCFQGSHVPHTFGSGTKLEIKR | 16.2 nM |  |  |  | 
2 | humanized anti-CCR7 antibody NB007-01 (antibody, human IgG1, kappa, V domains shown) VH: EVQLVQSGPEVVKPGASVKLSCKASGYSFTGYYMHWVKQAPGQGLEWIGRVNPNQGGTSYNKKFKVRVTITVDRSISTAYMEFSRLRSDDTVVYYCARSESNNFYAMDYWGQGTSVTVSS VL: DIVMTQSPLSLSVTPGQPASISCRSSQSLVHSNGNTYLCWYLQKPGQSPQLLIYRVSNKFSGVPDRFSGSGSGTDFTLKISRVEAEDVGVYYCFQGSHVPHTFGQGTKVEIKR | 18.2 nM | 25.5 nM | 21.4 nM | 17.8 nM | 14.8 nM

The next lines start with the values.

Row | IC50 (nM), inhibition of intracellular Ca2+ signaling in human CCR7 gene-transfected cells stimulated with 5x10^-8 M CCL21 (human CCR7 [1]) | IC50, inhibition of CCL19-dependent cell migration of Granta-519 cells (human CCR7 [2]) | IC50, inhibition of CCL19-induced intracellular Ca2+ signaling in hCCR7 gene-transfected cells (human CCR7 [2]) | IC50, inhibition of CCL21-induced intracellular Ca2+ signaling in hCCR7 gene-transfected cells (human CCR7 [2]) | half maximal inhibitory concentration (IC50), CCL21-induced intracellular Ca2+ signaling in MJ cells (human CCR7 [2]) | Binder
3 | 12.5 nM |  |  |  |  | humanized anti-CCR7 antibody NB007-03 (antibody, human IgG1, kappa, V domains shown) VH: EVQLVQSGPEVVKPGASVKLSCKASGYSFTGYYMHWVKQAPGQGLEWIGRVNPNNGGTSYNKKFKVRVTLTVDRSISTAYMEFSRLRSDDTVVYYCARSESNNFYAMDYWGQGTSVTVSS VL: DIVMTQTPLSLSVTLGQPASISCRSSQSLVHSNGNTYLCWYLQKPGQSPQLLIYRVSNRFSGVPDRFSGSGSGTDFTLKISRVEAEDVGVYYCFQGSHVPHTFGSGTKVEIKR
4 | 16.4 nM |  |  |  |  | humanized anti-CCR7 antibody NB007-02 (antibody, human IgG1, kappa, V domains shown) VH: EVQLVQSGPEVVKPGASVKLSCKASGYSFTGYYMHWVKQAPGQGLEWIGRVNPNQGGTSYNKKFKVRVTLTVDRSISTAYMEFSRLRSDDTVVYYCARSESNNFYAMDYWGQGTSVTVSS VL: DIVMTQSPLSLSVTPGQPASISCRSSQSLVHSNGNTYLCWYLQKPGQSPQLLIYRVSNRFSGVPDRFSGSGSGTDFTLKISRVEAEDVGVYYCFQGSHVPHTFGQGTKVEIKR
